Experimental data published in patent US20250388669A1 (published 2025).

T1: B7H3 (human, UniProt Q5ZPR3 29-466, limits assumed)
T1 sequence (looked up): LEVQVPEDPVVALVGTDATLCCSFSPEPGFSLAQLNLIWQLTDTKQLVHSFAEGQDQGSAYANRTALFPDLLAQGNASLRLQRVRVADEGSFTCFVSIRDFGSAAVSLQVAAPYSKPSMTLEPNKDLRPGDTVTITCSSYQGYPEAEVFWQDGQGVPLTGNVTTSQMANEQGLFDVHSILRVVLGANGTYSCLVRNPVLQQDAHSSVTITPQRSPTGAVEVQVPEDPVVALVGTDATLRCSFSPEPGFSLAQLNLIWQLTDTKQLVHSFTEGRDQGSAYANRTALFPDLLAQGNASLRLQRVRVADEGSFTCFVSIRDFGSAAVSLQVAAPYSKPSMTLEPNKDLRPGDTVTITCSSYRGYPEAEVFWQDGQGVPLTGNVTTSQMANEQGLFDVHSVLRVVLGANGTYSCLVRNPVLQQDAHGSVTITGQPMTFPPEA

B1: Ly2366 (other)
chain 1: QVQLVQSGAEVKKPGASVKVSCKASGYTFTSYVMHWVRQKPGQGLEWIGYINPYNEGTESTDKFKGRATMTSDKSTSTVYMELSSLRSEDTAVYYCASIYYGYEGTYFGVWGQGTLVTVSSASTKGPSVFPLAPSSKSTSGGTAALGCLVKDYFPEPVTVSWNSGALTSGVHTFPAVLQSSGLYSLSSVVTVPSSSLGTQTYICNVNHKPSNTKVDKKVEPKSCGGGGSGGGGSEVQLVESGGGLVQPGGSLRLSCAASGFTFSTYAMNWVRQAPGKGLEWVGRIRSKYNNYATYYADSVKGRFTISRDDSKNSLYLQMNSLKTEDTAVYYCVRHGNFGNSYVSWFAYWGQGTLVTVSSGGGGSDKTHTCPPCPAPEAAGPSVFLFPPKPKDTLMISRTPEVTCVVVDVSHEDPEVKFNWYVDGVEVHNAKTKPREEQYNSTYRVVSVLTVLHQDWLNGKEYKCKVSNKALPAPIEKTISKAKGQPREPQVYTLPPSREEMTKNQVSLWCLVKGFYPSDIAVEWESNGQPENNYKTTPPVLDSDGSFFLYSKLTVDKSRWQQGNVFSCSVMHEALHNHYTQKSLSLSPGGGGGSGGGGSGGGGSGGGGSQVQLVQSGAEVKKPGASVKVSCKASGYTFAGFEMHWVRQAPGQGLEWMGAIDPKTGGTDYNQKFKDRVTMTRDTSISTAYMELSRLRSDDTAVYYCARDLGYFDVWGQGTLVTVSS
chain 2: QVQLVQSGAEVKKPGASVKVSCKASGYTFTSYVMHWVRQKPGQGLEWIGYINPYNEGTESTDKFKGRATMTSDKSTSTVYMELSSLRSEDTAVYYCASIYYGYEGTYFGVWGQGTLVTVSSASTKGPSVFPLAPSSKSTSGGTAALGCLVKDYFPEPVTVSWNSGALTSGVHTFPAVLQSSGLYSLSSVVTVPSSSLGTQTYICNVNHKPSNTKVDKKVEPKSCGGGGSGGGGSQAVVTQEPSLTVSPGGTVTLTCRSSTGAVTTSNYANWVQQKPGQAPRGLIGGTNKRAPWTPARFSGSLLGGKAALTITGAQAEDEADYYCALWYSNLWVFGGGTKLTVLGGGGSDKTHTCPPCPAPEAAGPSVFLFPPKPKDTLMISRTPEVTCVVVDVSHEDPEVKFNWYVDGVEVHNAKTKPREEQYNSTYRVVSVLTVLHQDWLNGKEYKCKVSNKALPAPIEKTISKAKGQPREPQVYTLPPSREEMTKNQVSLSCAVKGFYPSDIAVEWESNGQPENNYKTTPPVLDSDGSFFLVSKLTVDKSRWQQGNVFSCSVMHEALHNRFTQKSLSLSPGGGGGSGGGGSGGGGSGGGGSDIQMTQSPSSLSASVGDRVTITCRASQDIRSNLNWYQQKPGGAVKLLIYYTSRLHSGVPSRFSGSGSGTDYTLTISSLQPEDFATYFCQQSEKLPRTFGGGTKVEIR
light: EIVLTQSPATLSLSPGERATLSCRASSSVSYMHWYQQKPGQAPRPWIYATSNLASGIPARFSGSRSGTDYTLTISSLEPEDFAVYYCQQWSSNTLTFGGGTKVEIKRTVAAPSVFIFPPSDEQLKSGTASVVCLLNNFYPREAKVQWKVDNALQSGNSQESVTEQDSKDSTYSLSSTLTLSKADYEKHKVYACEVTHQGLSSPVTKSFNRGEC
notes: Tri-specific antibody: B7H3 Fabs, central CD3 Fv, terminal CD137 Fv; Flexible linker is (G4S)2
B2: Ly2368 (other)
chain 1: QVQLVQSGAEVKKPGASVKVSCKASGYTFTSYVMHWVRQKPGQGLEWIGYINPYNEGTESTDKFKGRATMTSDKSTSTVYMELSSLRSEDTAVYYCASIYYGYEGTYFGVWGQGTLVTVSSASTKGPSVFPLAPSSKSTSGGTAALGCLVKDYFPEPVTVSWNSGALTSGVHTFPAVLQSSGLYSLSSVVTVPSSSLGTQTYICNVNHKPSNTKVDKKVEPKSCEVQLVESGGGLVQPGGSLRLSCAASGFTFSTYAMNWVRQAPGKGLEWVGRIRSKYNNYATYYADSVKGRFTISRDDSKNSLYLQMNSLKTEDTAVYYCVRHGNFGNSYVSWFAYWGQGTLVTVSSGGGGSDKTHTCPPCPAPEAAGPSVFLFPPKPKDTLMISRTPEVTCVVVDVSHEDPEVKFNWYVDGVEVHNAKTKPREEQYNSTYRVVSVLTVLHQDWLNGKEYKCKVSNKALPAPIEKTISKAKGQPREPQVYTLPPSREEMTKNQVSLWCLVKGFYPSDIAVEWESNGQPENNYKTTPPVLDSDGSFFLYSKLTVDKSRWQQGNVFSCSVMHEALHNHYTQKSLSLSPGGGGGSGGGGSGGGGSGGGGSQVQLVQSGAEVKKPGASVKVSCKASGYTFAGFEMHWVRQAPGQGLEWMGAIDPKTGGTDYNQKFKDRVTMTRDTSISTAYMELSRLRSDDTAVYYCARDLGYFDVWGQGTLVTVSS
chain 2: QVQLVQSGAEVKKPGASVKVSCKASGYTFTSYVMHWVRQKPGQGLEWIGYINPYNEGTESTDKFKGRATMTSDKSTSTVYMELSSLRSEDTAVYYCASIYYGYEGTYFGVWGQGTLVTVSSASTKGPSVFPLAPSSKSTSGGTAALGCLVKDYFPEPVTVSWNSGALTSGVHTFPAVLQSSGLYSLSSVVTVPSSSLGTQTYICNVNHKPSNTKVDKKVEPKSCQAVVTQEPSLTVSPGGTVTLTCRSSTGAVTTSNYANWVQQKPGQAPRGLIGGTNKRAPWTPARFSGSLLGGKAALTITGAQAEDEADYYCALWYSNLWVFGGGTKLTVLGGGGSDKTHTCPPCPAPEAAGPSVFLFPPKPKDTLMISRTPEVTCVVVDVSHEDPEVKFNWYVDGVEVHNAKTKPREEQYNSTYRVVSVLTVLHQDWLNGKEYKCKVSNKALPAPIEKTISKAKGQPREPQVYTLPPSREEMTKNQVSLSCAVKGFYPSDIAVEWESNGQPENNYKTTPPVLDSDGSFFLVSKLTVDKSRWQQGNVFSCSVMHEALHNRFTQKSLSLSPGGGGGSGGGGSGGGGSGGGGSDIQMTQSPSSLSASVGDRVTITCRASQDIRSNLNWYQQKPGGAVKLLIYYTSRLHSGVPSRFSGSGSGTDYTLTISSLQPEDFATYFCQQSEKLPRTFGGGTKVEIR
light: EIVLTQSPATLSLSPGERATLSCRASSSVSYMHWYQQKPGQAPRPWIYATSNLASGIPARFSGSRSGTDYTLTISSLEPEDFAVYYCQQWSSNTLTFGGGTKVEIKRTVAAPSVFIFPPSDEQLKSGTASVVCLLNNFYPREAKVQWKVDNALQSGNSQESVTEQDSKDSTYSLSSTLTLSKADYEKHKVYACEVTHQGLSSPVTKSFNRGEC
notes: Tri-specific antibody: B7H3 Fabs, central CD3 Fv, terminal CD137 Fv; It has no flexible linker
B3: Ly2367 (other)
chain 1: QVQLVQSGAEVKKPGASVKVSCKASGYTFTSYVMHWVRQKPGQGLEWIGYINPYNEGTESTDKFKGRATMTSDKSTSTVYMELSSLRSEDTAVYYCASIYYGYEGTYFGVWGQGTLVTVSSASTKGPSVFPLAPSSKSTSGGTAALGCLVKDYFPEPVTVSWNSGALTSGVHTFPAVLQSSGLYSLSSVVTVPSSSLGTQTYICNVNHKPSNTKVDKKVEPKSCGGGGSEVQLVESGGGLVQPGGSLRLSCAASGFTFSTYAMNWVRQAPGKGLEWVGRIRSKYNNYATYYADSVKGRFTISRDDSKNSLYLQMNSLKTEDTAVYYCVRHGNFGNSYVSWFAYWGQGTLVTVSSGGGGSDKTHTCPPCPAPEAAGPSVFLFPPKPKDTLMISRTPEVTCVVVDVSHEDPEVKFNWYVDGVEVHNAKTKPREEQYNSTYRVVSVLTVLHQDWLNGKEYKCKVSNKALPAPIEKTISKAKGQPREPQVYTLPPSREEMTKNQVSLWCLVKGFYPSDIAVEWESNGQPENNYKTTPPVLDSDGSFFLYSKLTVDKSRWQQGNVFSCSVMHEALHNHYTQKSLSLSPGGGGGSGGGGSGGGGSGGGGSQVQLVQSGAEVKKPGASVKVSCKASGYTFAGFEMHWVRQAPGQGLEWMGAIDPKTGGTDYNQKFKDRVTMTRDTSISTAYMELSRLRSDDTAVYYCARDLGYFDVWGQGTLVTVSS
chain 2: QVQLVQSGAEVKKPGASVKVSCKASGYTFTSYVMHWVRQKPGQGLEWIGYINPYNEGTESTDKFKGRATMTSDKSTSTVYMELSSLRSEDTAVYYCASIYYGYEGTYFGVWGQGTLVTVSSASTKGPSVFPLAPSSKSTSGGTAALGCLVKDYFPEPVTVSWNSGALTSGVHTFPAVLQSSGLYSLSSVVTVPSSSLGTQTYICNVNHKPSNTKVDKKVEPKSCGGGGSQAVVTQEPSLTVSPGGTVTLTCRSSTGAVTTSNYANWVQQKPGQAPRGLIGGTNKRAPWTPARFSGSLLGGKAALTITGAQAEDEADYYCALWYSNLWVFGGGTKLTVLGGGGSDKTHTCPPCPAPEAAGPSVFLFPPKPKDTLMISRTPEVTCVVVDVSHEDPEVKFNWYVDGVEVHNAKTKPREEQYNSTYRVVSVLTVLHQDWLNGKEYKCKVSNKALPAPIEKTISKAKGQPREPQVYTLPPSREEMTKNQVSLSCAVKGFYPSDIAVEWESNGQPENNYKTTPPVLDSDGSFFLVSKLTVDKSRWQQGNVFSCSVMHEALHNRFTQKSLSLSPGGGGGSGGGGSGGGGSGGGGSDIQMTQSPSSLSASVGDRVTITCRASQDIRSNLNWYQQKPGGAVKLLIYYTSRLHSGVPSRFSGSGSGTDYTLTISSLQPEDFATYFCQQSEKLPRTFGGGTKVEIR
light: EIVLTQSPATLSLSPGERATLSCRASSSVSYMHWYQQKPGQAPRPWIYATSNLASGIPARFSGSRSGTDYTLTISSLEPEDFAVYYCQQWSSNTLTFGGGTKVEIKRTVAAPSVFIFPPSDEQLKSGTASVVCLLNNFYPREAKVQWKVDNALQSGNSQESVTEQDSKDSTYSLSSTLTLSKADYEKHKVYACEVTHQGLSSPVTKSFNRGEC
notes: Tri-specific antibody: B7H3 Fabs, central CD3 Fv, terminal CD137 Fv; Flexible linker is G4S

Biological target: T1, B7H3
Experiment: ELISA or FCM (Example 2)

| Binder | binding result |
| --- | --- |
| B1 | binds |
| B2 | binds |
| B3 | binds |
